Results from PMC10341166, “The Src-Family Kinases SRC and BLK Contribute to the CLDN6-Adhesion Signaling” (Cells, 2023).

Assays:
[1] = molecular target: T1, recGST-BLK (full-length recombinant BLK, Sf9) (mouse, UniProt P16277 1-499); test: pull-down; GST pull-down: 10 µg recGST, recBLK-FLAG or recSRC bound to Glutathione-Superflow Resin, incubated with 3 µg recCLDN6C for 1 h at room temperature; washed five times in 140 mM NaCl, 10 mM Na2HPO4, 1.8 mM KH2PO4, pH 7.5; immunoblot; conditions: both partners purified
T1 construct: tyrosine-protein kinase BLK, mouse, full-length; Blk-FLAG subcloned into plEx/Bac-4; also called recBLK; recBLK-FLAG; source: Sf9 insect cells, transfected, purified (GST-tagged protein purification kit)
T1 sequence (P16277 whole entry): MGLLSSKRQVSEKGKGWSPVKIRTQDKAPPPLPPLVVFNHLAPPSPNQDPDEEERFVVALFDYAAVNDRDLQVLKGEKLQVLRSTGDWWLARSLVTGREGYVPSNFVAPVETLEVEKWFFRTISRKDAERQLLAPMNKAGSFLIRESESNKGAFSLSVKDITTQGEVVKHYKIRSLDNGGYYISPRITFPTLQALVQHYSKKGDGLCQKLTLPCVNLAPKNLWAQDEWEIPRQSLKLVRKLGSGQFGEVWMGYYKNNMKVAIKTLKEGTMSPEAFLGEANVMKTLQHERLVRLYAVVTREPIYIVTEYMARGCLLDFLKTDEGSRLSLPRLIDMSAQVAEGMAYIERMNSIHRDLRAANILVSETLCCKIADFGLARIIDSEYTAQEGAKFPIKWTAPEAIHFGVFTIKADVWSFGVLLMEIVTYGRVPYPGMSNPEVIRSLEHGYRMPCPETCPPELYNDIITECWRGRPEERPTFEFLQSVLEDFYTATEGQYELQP

[2] = molecular target: T2, recGST-SRC (full-length recombinant SRC, Sf9) (mouse, UniProt P05480 1-535); test: as above; conditions: both partners purified
T2 construct: proto-oncogene tyrosine-protein kinase SRC, mouse, full-length; Src-FLAG subcloned into plEx/Bac-4; also called recSRC; source: Sf9 insect cells, transfected, purified (GST-tagged protein purification kit)

B1: recCLDN6C (recombinant C-terminal cytoplasmic domain of CLDN6, C185-V219) (domain or fragment, mouse, UniProt Q9Z262 185-219, looked up)
chain: CSSGGTQGPRHYMACYSTSVPHSRGPSEYPTKNYV
notes: claudin-6 (CLDN6), mouse, C-terminus C185-V219; source: recombinant, from plEx/Bac-4
Does B1 bind [1]?
Result: binds

Does B1 bind [2]?
Result: binds
